Literature values, collected in publication PMC5368065.

Tests used:
[1] = target: MLL1 MBM1-MBM2 (Homo sapiens) (UniProt Q03164)
[2] = target: MLL1 (Homo sapiens) (UniProt Q03164)

- Kd [1]: 10 nM
- Kd [2]: 10 nM
Substance: Menin (from UniProt O00255)
